Test results as given in IntAct's records for PubMed 21239581.

B1: Chromosomal replication initiator protein DnaA (Bacillus subtilis), P05648 (parent)
chain: MENILDLWNQALAQIEKKLSKPSFETWMKSTKAHSLQGDTLTITAPNEFARDWLESRYLHLIADTIYELTGEELSIKFVIPQNQDVEDFMPKPQVKKAVKEDTSDFPQNMLNPKYTFDTFVIGSGNRFAHAASLAVAEAPAKAYNPLFIYGGVGLGKTHLMHAIGHYVIDHNPSAKVVYLSSEKFTNEFINSIRDNKAVDFRNRYRNVDVLLIDDIQFLAGKEQTQEEFFHTFNTLHEESKQIVISSDRPPKEIPTLEDRLRSRFEWGLITDITPPDLETRIAILRKKAKAEGLDIPNEVMLYIANQIDSNIRELEGALIRVVAYSSLINKDINADLAAEALKDIIPSSKPKVITIKEIQRVVGQQFNIKLEDFKAKKRTKSVAFPRQIAMYLSREMTDSSLPKIGEEFGGRDHTTVIHAHEKISKLLADDEQLQQHVKEIKEQLK
partner: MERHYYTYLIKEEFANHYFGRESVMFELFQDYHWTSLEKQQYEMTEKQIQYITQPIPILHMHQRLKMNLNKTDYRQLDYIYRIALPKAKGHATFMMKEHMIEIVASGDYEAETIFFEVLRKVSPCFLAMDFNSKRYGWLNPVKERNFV

Variants of: B1
Details: with sira_bacsu sirA

Effect of a mutation on the interaction, disrupting interaction:
F49Y
A50T
N47D
